In patent US20050004011A1, “Compositions and methods for treating bacterial infections with protein-dalbavancin complexes” (priority 2002, published 2005):
Values joined by “and” are separate entries in the source; they are usually repeats but may differ in a detail not shown here. Equal values may be shown once. Read-outs that look alike come from different tables or passages of the source.

Columns and labels:
[1] = target: N,N′-diacetyl-Lys-D-Ala-D-Ala; assay: ITC, 10 C, HSA 0 µM
[2] = target: N,N′-diacetyl-Lys-D-Ala-D-Ala; assay: ITC, 37 C, HSA 0 µM
[3] = target: N,N′-diacetyl-Lys-D-Ala-D-Ala; assay: ITC, 10 C, no HSA, average
[4] = target: N,N′-diacetyl-Lys-D-Ala-D-Ala; assay: ITC, 25 C, no HSA, average
[5] = target: N,N′-diacetyl-Lys-D-Ala-D-Ala; assay: ITC, 37 C, no HSA, average
Bovine albumin (bovine) = Bovine albumin (bovine) (UniProt P02769); assay: ITC, 25 C, single-site model
Dog albumin (dog) [6] = target: Dog albumin (dog) (UniProt P49822); assay: ITC, 25 C, single-site model
[7] = target: Human serum albumin (human) (UniProt P02768); assay: ITC, 25 C, single-site model
[8] = target: Human α-glycoprotein (human) (UniProt P02763); assay: ITC, 25 C, single-site model
Rat albumin (rat) [9] = target: Rat albumin (rat) (UniProt P02770); assay: ITC, 25 C, single-site model
Dog albumin (dog) [10] = target: Dog albumin (dog) (UniProt P49822); assay: ITC, 37 C, single-site model
[11] = target: Human serum albumin (human) (UniProt P02768); assay: ITC, 37 C, single-site model
[12] = target: Human α-glycoprotein (human) (UniProt P02763); assay: ITC, 37 C, single-site model
Rat albumin (rat) [13] = target: Rat albumin (rat) (UniProt P02770); assay: ITC, 37 C, single-site model
[14] = target: N,N′-diacetyl-Lys-D-Ala-D-Ala; assay: ITC, 25 C, HSA 104 µM present
[15] = target: N,N′-diacetyl-Lys-D-Ala-D-Ala; assay: ITC, 25 C, HSA 288 µM present
[16] = target: N,N′-diacetyl-Lys-D-Ala-D-Ala; assay: ITC, 25 C, HSA 430 µM present
[17] = target: N,N′-diacetyl-Lys-D-Ala-D-Ala
[18] = target: N,N′-diacetyl-Lys-D-Ala-D-Ala; remark: listed apart in the source
[19] = target: N,N′-diacetyl-Lys-D-Ala-D-Ala; assay: ITC, 37 C, HSA 516 µM present
[20] = target: N,N′-diacetyl-Lys-D-Ala-D-Ala; remark: listed apart in the source
[21] = target: N,N′-diacetyl-Lys-D-Ala-D-Ala; assay: ITC, 25 C, HSA 34.2 µM present
[22] = target: N,N′-diacetyl-Lys-D-Ala-D-Ala; remark: listed apart in the source
[23] = target: N,N′-diacetyl-Lys-D-Ala-D-Ala; assay: ITC, 25 C, apparent Kdiss plateau at high HSA
[24] = target: N,N′-diacetyl-Lys-D-Ala-D-Ala; assay: ITC, preliminary experiments, no serum proteins
[25] = target: Human serum albumin (human) (UniProt P02768); assay: calculated from ITC Ka; antibiotic 1 µM, HSA 6x10^-4 M assumed
[26] = target: Human serum albumin (human) (UniProt P02768); assay: calculated from ITC Ka; antibiotic 10 µM, HSA 6x10^-4 M assumed
[27] = target: Human serum albumin (human) (UniProt P02768); assay: calculated from ITC Ka; antibiotic 100 µM, HSA 6x10^-4 M assumed
[28] = target: Human serum albumin (human) (UniProt P02768); assay: calculated from ITC Ka; antibiotic 165 µM, HSA 6x10^-4 M assumed
[29] = target: Human serum albumin (human) (UniProt P02768); assay: calculated from ITC Ka; antibiotic 250 µM, HSA 6x10^-4 M assumed
[30] = target: Human serum albumin (human) (UniProt P02768); assay: calculated from ITC Ka; antibiotic 500 µM, HSA 6x10^-4 M assumed
[31] = target: Human α-glycoprotein (human) (UniProt P02763); assay: calculated from ITC Ka; antibiotic 1 µM, α-glycoprotein 1.5x10^-5 M assumed
[32] = target: Human α-glycoprotein (human) (UniProt P02763); assay: calculated from ITC Ka; antibiotic 10 µM, α-glycoprotein 1.5x10^-5 M assumed
[33] = target: Human α-glycoprotein (human) (UniProt P02763); assay: calculated from ITC Ka; antibiotic 100 µM, α-glycoprotein 1.5x10^-5 M assumed
[34] = target: Human α-glycoprotein (human) (UniProt P02763); assay: calculated from ITC Ka; antibiotic 165 µM, α-glycoprotein 1.5x10^-5 M assumed
[35] = target: Human α-glycoprotein (human) (UniProt P02763); assay: calculated from ITC Ka; antibiotic 250 µM, α-glycoprotein 1.5x10^-5 M assumed
[36] = target: Human α-glycoprotein (human) (UniProt P02763); assay: calculated from ITC Ka; antibiotic 500 µM, α-glycoprotein 1.5x10^-5 M assumed
human α-glycoprotein = assay: Protein binding by isothermal titration microcalorimetry; details: α-glycoprotein […]10^−5M
Experimental: (§1) Integrated heat effects, after correction for heats of dilution, were analyzed by non-linear regression using a simple single-site binding model with the standard Microcal ORIGIN software package. Raw data (μcal/sec) for each injection were integrated to give the total heat effect per addition, then divided by amount of injectant to give kcal/mole of injectant. The same integration was applied for control dilution effects, and this was subtracted from the actual titration data. This provided a differential of the binding curve in which the extent of binding is proportional to the total heat liberated (or absorbed). This was then analyzed by non-linear regression methods in terms of various standard binding models.

human albumin = human albumin (Homo sapiens, UniProt P02768); assay: as above
Experimental: as §1

[37] = target: N,N′-diacetyl-Lys-D-Ala-D-Ala; assay: ITC, 25 C, HSA 0 µM
[38] = target: N,N′-diacetyl-Lys-D-Ala-D-Ala; assay: ITC, 25 C, HSA 513 µM present
[39] = target: N,N′-diacetyl-Lys-D-Ala-D-Ala; assay: ITC, 25 C, asymptote of the non-competitive binding model

Human α-glycoprotein (human), sequence (P02763 19-201): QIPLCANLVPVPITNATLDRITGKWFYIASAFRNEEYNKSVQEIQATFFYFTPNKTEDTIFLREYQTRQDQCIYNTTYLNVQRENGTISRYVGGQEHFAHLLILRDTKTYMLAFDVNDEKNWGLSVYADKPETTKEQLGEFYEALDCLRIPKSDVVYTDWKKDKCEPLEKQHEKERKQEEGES
Dog albumin (dog), sequence (P49822 25-608 limits assumed): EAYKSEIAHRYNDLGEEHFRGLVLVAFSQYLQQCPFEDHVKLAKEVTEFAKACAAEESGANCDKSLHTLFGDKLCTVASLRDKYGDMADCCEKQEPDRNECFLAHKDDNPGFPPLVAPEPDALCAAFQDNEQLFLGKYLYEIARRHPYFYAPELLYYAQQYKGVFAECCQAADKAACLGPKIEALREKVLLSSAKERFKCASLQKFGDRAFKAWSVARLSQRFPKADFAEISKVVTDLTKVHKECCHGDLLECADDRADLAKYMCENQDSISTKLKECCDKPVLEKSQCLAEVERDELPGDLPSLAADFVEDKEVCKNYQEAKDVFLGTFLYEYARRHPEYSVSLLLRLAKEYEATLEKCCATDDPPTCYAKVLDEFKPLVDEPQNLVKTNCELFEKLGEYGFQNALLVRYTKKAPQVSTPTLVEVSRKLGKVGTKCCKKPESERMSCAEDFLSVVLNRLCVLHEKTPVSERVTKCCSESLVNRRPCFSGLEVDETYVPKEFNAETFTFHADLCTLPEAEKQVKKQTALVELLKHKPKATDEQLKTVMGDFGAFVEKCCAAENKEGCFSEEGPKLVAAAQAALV
Rat albumin (rat), sequence (P02770 25-608 limits assumed): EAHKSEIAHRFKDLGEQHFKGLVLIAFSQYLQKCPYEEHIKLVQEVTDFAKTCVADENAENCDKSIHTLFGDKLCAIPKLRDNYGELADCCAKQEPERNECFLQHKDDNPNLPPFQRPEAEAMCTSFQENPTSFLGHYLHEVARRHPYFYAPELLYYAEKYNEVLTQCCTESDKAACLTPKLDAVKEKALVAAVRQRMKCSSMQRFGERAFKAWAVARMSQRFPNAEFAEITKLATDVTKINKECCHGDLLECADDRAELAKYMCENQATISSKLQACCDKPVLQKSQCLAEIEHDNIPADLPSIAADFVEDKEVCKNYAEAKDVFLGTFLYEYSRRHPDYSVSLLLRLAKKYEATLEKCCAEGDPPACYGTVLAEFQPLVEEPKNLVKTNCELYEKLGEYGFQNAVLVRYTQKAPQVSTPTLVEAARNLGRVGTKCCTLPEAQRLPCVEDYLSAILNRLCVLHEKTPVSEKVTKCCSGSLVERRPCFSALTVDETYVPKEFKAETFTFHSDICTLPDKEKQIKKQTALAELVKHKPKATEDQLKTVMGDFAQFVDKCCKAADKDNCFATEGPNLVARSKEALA
Bovine albumin (bovine), sequence (P02769 25-607 limits assumed): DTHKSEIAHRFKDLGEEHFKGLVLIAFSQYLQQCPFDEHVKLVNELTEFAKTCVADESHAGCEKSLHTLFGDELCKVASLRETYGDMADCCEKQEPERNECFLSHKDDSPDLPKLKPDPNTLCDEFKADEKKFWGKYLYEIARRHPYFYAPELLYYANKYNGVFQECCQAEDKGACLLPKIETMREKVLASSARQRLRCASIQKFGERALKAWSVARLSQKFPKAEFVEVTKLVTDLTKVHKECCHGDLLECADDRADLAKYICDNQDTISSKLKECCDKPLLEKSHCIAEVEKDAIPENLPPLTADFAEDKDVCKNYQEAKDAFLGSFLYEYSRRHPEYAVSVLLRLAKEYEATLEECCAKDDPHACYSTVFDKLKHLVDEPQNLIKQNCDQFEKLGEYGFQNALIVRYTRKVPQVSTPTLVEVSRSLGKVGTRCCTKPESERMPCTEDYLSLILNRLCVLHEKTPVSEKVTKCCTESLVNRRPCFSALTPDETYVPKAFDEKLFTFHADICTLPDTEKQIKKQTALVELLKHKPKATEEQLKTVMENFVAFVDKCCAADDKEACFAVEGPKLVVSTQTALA

For Dalbavancin (peptide), the ΔH [1] was -10.3 kcal/mol (2×) and -8.95 kcal/mol, the ΔS [1] was -9.6 eu and -4.3 eu and -9.9 eu and the Ka [2] was 130000 M⁻¹ and 110000 M⁻¹. The Kd [2] was 7.69 µM and 9.09 µM, the ΔH [2] was -52.3 kJ/mol and -72.8 kJ/mol and the ΔS [2] was -16.8 eu and -33.2 eu. It also gave a Kd [3] of 1.4 µM, a Kd [4] of 3.1 µM and a Kd [5] of 8.4 µM. The Ka (Bovine albumin (bovine)) was 138000 M⁻¹, the Ka (Dog albumin (dog) [6]) was 62000 M⁻¹ and the Ka [7] was 135000 M⁻¹. The Ka [8] was 184000 M⁻¹, the Ka (Rat albumin (rat) [9]) was 310000 M⁻¹ and the Ka (Dog albumin (dog) [10]) was 50000 M⁻¹. It also gave a Ka [11] of 133000 M⁻¹, a Ka [12] of 480000 M⁻¹ and a Ka (Rat albumin (rat) [13]) of 280000 M⁻¹. For the same substance, the Ka [14] was 34900 M⁻¹, the Kd [14] was 28.7 µM and the ΔH [14] was -77.8 kJ/mol. It also gave a ΔS [14] of -41.7 eu, a Ka [15] of 31000 M⁻¹ and a Kd [15] of 32.3 µM. For the same substance, the ΔH [15] was -88.1 kJ/mol, the ΔS [15] was -50 eu and the Ka [16] was 28400 M⁻¹. The Kd [16] was 35.2 µM, the ΔH [16] was -81.6 kJ/mol and the ΔS [16] was -44.9 eu. It also gave a Ka [17] of 21800 M⁻¹, a Kd [17] of 45.9 µM and a ΔH [17] of -62.8 kJ/mol. The ΔS [17] was -30.4 eu, the Ka [18] was 12500 M⁻¹ and the Kd [18] was 80 µM. For the same substance, the ΔH [18] was -413 kJ/mol, the ΔS [18] was -299 eu and the Ka [19] was 9570 M⁻¹. For the same substance, the Kd [19] was 105 µM, the ΔH [19] was -111 kJ/mol and the ΔS [19] was -67.6 eu. The Ka [20] was 118000 M⁻¹, the Kd [20] was 8.47 µM and the ΔH [20] was -116 kJ/mol and -110 kJ/mol. The ΔS [20] was -70.1 eu and -65.5 eu, the Ka [21] was 35000 M⁻¹ and the Kd [21] was 28.6 µM. For the same substance, the ΔH [21] was -83.7 kJ/mol, the ΔS [21] was -46.2 eu and the Ka [22] was 27600 M⁻¹. For the same substance, the Kd [22] was 36.2 µM, the ΔH [22] was -70.7 kJ/mol and the ΔS [22] was -36.5 eu. It also gave a Kd [23] of 35 µM, a Kd [24] of 1 to 10 µM and a calculated percent bound [25] of 98.8%. It also gave a calculated percent bound [26] of 98.8%, a calculated percent bound [27] of 98.7% and a calculated percent bound [28] of 98.6%. It also gave a calculated percent bound [29] of 98.5%, a calculated percent bound [30] of 98% and a calculated percent bound [31] of 73%. For the same substance, the calculated percent bound [32] was 68.2%, the calculated percent bound [33] was 26.2% and the calculated percent bound [34] was 16.9%. It also gave a calculated percent bound [35] of 11.4% and a calculated percent bound [36] of 5.9%.

Substance Teicoplanin (peptide) has a Ka [7] of 96000 M⁻¹, a Ka [8] of 7000 M⁻¹ and a calculated percent bound [25] of 98.3%. It also gave a calculated percent bound [26] of 98.3%, a calculated percent bound [27] of 98% and a calculated percent bound [31] of 9.6%. For the same substance, the calculated percent bound [32] was 9.1% and the calculated percent bound [33] was 6%.

For Teicoplanin [reference compound], the Calculated percent binding (human α-glycoprotein; antibiotic 1 μM) was 9.6%, the Calculated percent binding (human α-glycoprotein; antibiotic 10 μM) was 9.1% and the Calculated percent binding (human α-glycoprotein; antibiotic 100 μM) was 6.0%. For the same substance, the “binding stoichiometry modeling (drug:protein)” value (human albumin) was 1:1 binding and the Calculated percent binding (human albumin; antibiotic 100 μM, human serum albumin 6×10^−4 M) was 98.0%.

“Vancomycin hydrochloride (Sigma V-2002, fw 1485.7) (peptide)” showed a Ka [1] of 690000 M⁻¹, a Kd [1] of 1.45 µM and a ΔH [1] of -39.7 kJ/mol. For the same substance, the ΔS [1] was -6.8 eu, the Ka [37] was 340000 M⁻¹ and 360000 M⁻¹ and the Kd [37] was 2.94 µM and 2.78 µM. For the same substance, the ΔH [37] was -44.8 kJ/mol and -54 kJ/mol, the ΔS [37] was -10.6 eu and -17.8 eu and the Ka [38] was 290000 M⁻¹. The Kd [38] was 3.45 µM, the ΔH [38] was -42.2 kJ/mol and the ΔS [38] was -8.8 eu.

For “dalbavancin-HSA complex (from UniProt P02768 25-609)”, the Kd [39] was 35 µM.
